In US20230227838A1, “ENHANCED CELL SURVIVAL AGAINST BIOTIC AND ABIOTIC STRESSES THROUGH SALICYLICK ACID-INDUCED NPR1 CONDENSATES” (priority 2020, published 2023) one finds Normalized Fold Change: SA vs Mock data, which are given here for eleven molecules.

This assay concerns the target sim3-GFP (Arabidopsis thaliana) (UniProt P93002). As to the kind of experiment: sim3-GFP IP, LC-MS/MS.

sim3-GFP (Arabidopsis thaliana), sequence (P93002 other isoform, or with tags, fused parts or gaps): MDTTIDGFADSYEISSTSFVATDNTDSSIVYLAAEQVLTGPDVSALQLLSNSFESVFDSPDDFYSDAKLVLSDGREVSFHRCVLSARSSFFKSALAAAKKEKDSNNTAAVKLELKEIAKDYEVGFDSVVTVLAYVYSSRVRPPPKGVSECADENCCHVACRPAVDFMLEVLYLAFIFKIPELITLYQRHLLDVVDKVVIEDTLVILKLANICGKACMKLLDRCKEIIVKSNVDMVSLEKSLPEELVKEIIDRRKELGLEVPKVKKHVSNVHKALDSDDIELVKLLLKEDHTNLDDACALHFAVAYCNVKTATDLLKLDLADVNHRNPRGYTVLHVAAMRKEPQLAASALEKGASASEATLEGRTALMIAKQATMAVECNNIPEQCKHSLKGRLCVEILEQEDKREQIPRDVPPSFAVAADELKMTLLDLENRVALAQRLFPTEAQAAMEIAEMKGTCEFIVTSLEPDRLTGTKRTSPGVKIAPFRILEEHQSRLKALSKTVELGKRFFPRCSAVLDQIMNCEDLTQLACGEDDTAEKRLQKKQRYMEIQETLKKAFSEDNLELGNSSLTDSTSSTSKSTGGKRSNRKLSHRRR

B1: ARD3, acireductone dioxygenase 3 (protein, UniProt Q8W108 1-199, looked up)
Acireductone dioxygenase 3: MGEVVKDGREEVIQAWYMDDSEEDQRLPHHKDPKEFLSLDKLAELGVLSWRLDADNYETDEDLKKIRESRGYSYMDFCEVCPEKLPNYEVKVKSFFEEHLHTDEEIRYCVAGSGYFDVRDRNEAWIRVWVKKGGMIVLPAGIYHRFTVDSDNYIKAMRLFVGEPVWTPYNRPHDHLPARKEYIDNFVKVNEGGVIDASA
Take B1: the Normalized Fold Change: SA vs Mock was found to be 8.57 fold.

B2: UGT74F2, UDP-glucosyltransferase 74F2 (protein, UniProt O22822 1-449, looked up)
UDP-glycosyltransferase 74F2: MEHKRGHVLAVPYPTQGHITPFRQFCKRLHFKGLKTTLALTTFVFNSINPDLSGPISIATISDGYDHGGFETADSIDDYLKDFKTSGSKTIADIIQKHQTSDNPITCIVYDAFLPWALDVAREFGLVATPFFTQPCAVNYVYYLSYINNGSLQLPIEELPFLELQDLPSFFSVSGSYPAYFEMVLQQFINFEKADFVLVNSFQELELHENELWSKACPVLTIGPTIPSIYLDQRIKSDTGYDLNLFESKDDSFCINWLDTRPQGSVVYVAFGSMAQLTNVQMEELASAVSNFSFLWVVRSSEEEKLPSGFLETVNKEKSLVLKWSPQLQVLSNKAIGCFLTHCGWNSTMEALTFGVPMVAMPQWTDQPMNAKYIQDVWKAGVRVKTEKESGIAKREEIEFSIKEVMEGERSKEMKKNVKKWRDLAVKSLNEGGSTDTNIDTFVSRVQSK
The molecule B2 came in with a Normalized Fold Change: SA vs Mock of 8.99 fold.

B3: UBP2, ubiquitin-specific protease 2 (protein, UniProt Q8W4N3 1-961, looked up)
Ubiquitin carboxyl-terminal hydrolase 2: MGKKAKKKARAPTKEIQTMEISKKVSEEPPSQAGEIAEGDVKAVKETQACVHFDKALNLEKVLDKIKSSRQIKCAECNEGVYGKRGTKAKGSKGKKDFSSSDPKSNNKAIWLCLECGCYVCGGVGLPNGPQSHVLRHSRVTRHRLVIQWENPQLRWCFPCQLLLPVEKEDNGEKKDVLSEVVKLIKGRSLNNLASSDIEDQCSGSGSITSDIKLEGAVTSDIEARDGYVVRGLVNLGNTCFFNSIMQNLLSLDRLRDHFLKENGSGVGGPLASSLRKLFTETKPEAGLKSVINPRAFFGSFCSKAPQFRGYDQHDSHELLRCLLDSLSTEESALRKKRGVSDNDEKSTTLIESVFGGETSSIVSCMECGHSSKVYEPFLDLSLPVPFKKSPPKKPQPVSRAKKAKLPPKRVPKNVSKVSKVSKVLPGMVLSELNSSGKSMAVTADSDTSCSSLAPLDNGPVLETPSVLTLDNNQASESASQSDTGFDGSWLDFIGPETSGDETNLDMQEDGIDNVITAEVNQIVPSPNIVANSSVSSGDQTLEGNTERLMQDYEEIAKAEANLDEKDVQAMQSDECPATSGISAEFSQASCIGCDPGIGESSSSVNPWDEEELPLVVADSQILYMPYKEISCNDKSVEGECEASSSFVTGDHEPQNSDFVDFGGLFDEPETTEGPVFGPPSKAEASGVGFMAFSSESDPEEIDDSDLPVSVERCLGHFTKHEILSDDNAWNCENCSKNLKLQRLREKRKSNEDESRSSNTSNGWVKENEDEGFGETEILAVKQDPNDTSCVKDHSSDGRKAARIHSADESESKGTQDEDEDSEKVITVKRDATKKVLINKAPPVLTIHLKRFSQDLRGRLSKLNGHVAFKEVIDLRQYMDSRCSGEDPPVYRLAGLVEHSGTMRGGHYVAYVRGGQRVKETDSSSTAWYNVSDAYVRQVSLEKVLHSEAYILFYERIFSQE
In turn, B3 displayed a Normalized Fold Change: SA vs Mock of 2.31 fold.

B4: LON2, lon protease 2 (protein, UniProt O64948 1-888, looked up)
Lon protease homolog 2, peroxisomal: MAETVELPSRLAILPFRNKVLLPGAIIRIRCTSHSSVTLVEQELWQKEEKGLIGILPVRDDAEGSSIGTMINPGAGSDSGERSLKFLVGTTDAQKSDAKDQQDLQWHTRGVAARALHLSRGVEKPSGRVTYVVVLEGLSRFNVQELGKRGPYSVARITSLEMTKAELEQVKQDPDFVALSRQFKTTAMELVSVLEQKQKTGGRTKVLLETVPIHKLADIFVASFEMSFEEQLSMLDSVDLKVRLSKATELVDRHLQSIRVAEKITQKVEGQLSKSQKEYLLRQQMRAIKEELGDNDDDEDDVAALERKMQAAGMPSNIWKHAQRELRRLKKMQPQQPGYNSSRVYLELLADLPWDKASEEHELDLKAAKERLDSDHYGLAKVKQRIIEYLAVRKLKPDARGPVLCFVGPPGVGKTSLASSIAAALGRKFVRLSLGGVKDEADIRGHRRTYIGSMPGRLIDGLKRVGVCNPVMLLDEIDKTGSDVRGDPASALLEVLDPEQNKSFNDHYLNVPYDLSKVVFVATANRVQPIPPPLLDRMELIELPGYTQEEKLKIAMRHLIPRVLDQHGLSSEFLKIPEAMVKNIIQRYTREAGVRSLERNLAALARAAAVMVAEHEQSLPLSKDVQKLTSPLLNGRMAEGGEVEMEVIPMGVNDHEIGGTFQSPSALVVDETMLEKILGPPRFDDSEAADRVASAGVSVGLVWTTFGGEVQFVEATSMVGKGEMHLTGQLGDVIKESAQLALTWVRARASDFKLALAGDMNVLDGRDIHIHFPAGAVPKDGPSAGVTLVTALVSLFSQKRVRADTAMTGEMTLRGLVLPVGGIKDKILAAHRYGIKRVILPQRNSKDLVEVPAAVLSSLEVILAKRMEDVLENAFEGGCPWRNNYSKL
Molecule B4 displayed a Normalized Fold Change: SA vs Mock of 2.47 fold.

B5: TCH4, XTH22, Xyloglucan endotransglucosylase/hydrolase family protein (protein, UniProt Q38857 22-284, looked up)
Xyloglucan endotransglucosylase/hydrolase protein 22: NFQRDVEITWGDGRGQIKNNGELLTLSLDKSSGSGFQSKNEYLFGKVSMQMKLVPGNSAGTVTTLYLKSPGTTWDEIDFEFLGNSSGEPYTLHTNVYTQGKGDKEQQFKLWFDPTANFHTYTILWNPQRIIFTVDGTPIREFKNMESLGTLFPKNKPMRMYSSLWNADDWATRGGLVKTDWSKAPFTASYRGFQQEACVWSNGKSSCPNASKQGTTTGSWLSQELDSTAQQRMRWVQRNYMIYNYCTDAKRFPQGLPKECLAA
B5 came in with a Normalized Fold Change: SA vs Mock of 102 fold.

B6: RPP5, Disease resistance protein (TIR-NBS-LRR class) (protein, UniProt F4JNB7 1-1449, looked up)
Disease resistance protein RPP5: MAASSSSGRRRYDVFPSFSGVDVRKTFLSHLIEALDGKSINTFIDHGIERSRTIAPELISAIREARISIVIFSKNYASSTWCLNELVEIHKCFNDLGQMVIPVFYDVDPSEVRKQTGEFGKVFEKTCEVSKDKQPGDQKQRWVQALTDIANIAGEDLLNGPNEAHMVEKISNDVSNKLITRSKCFDDFVGIEAHIEAIKSVLCLESKEARMVGIWGQSGIGKSTIGRALFSQLSIQFPLRAFLTYKSTSGSDVSGMKLSWEKELLSEILGQKDIKIEHFGVVEQRLKHKKVLILLDDVDNLEFLKTLVGKAEWFGSGSRIIVITQDRQFLKAHDIDLVYEVKLPSQGLALTMLCRSAFGKDSPPDDFKELAFEVAKLAGHLPLGLNVLGSSLRRRGKKEWMEMMPRLRNGLNGDIMKTLRVSYDRLHQKDQDMFLCIACLFNGFEVSYVKDLLEDNVGLTMLSEKSLIRITPDGHIEMHNLLEKLGREIDRAKSKGNPGKRQFLTNFEDIHEVVTEKTGTETLLGIRLPFEEYFSTRPLLIDKESFKGMRNLQYLKIGDWSDGGQPQSLVYLPLKLRLLDWDDCPLKSLPSTFKAEYLVNLIMKYSKLEKLWEGTLPLGSLKKMNLLCSKNLKEIPDLSNARNLEELDLEGCESLVTLPSSIQNAIKLRKLHCSGVILIDLKSLEGMCNLEYLSVDCSRVEGTQGIVYFPSKLRLLLWNNCPLKRLHSNFKVEYLVKLRMENSDLEKLWDGTQPLGRLKQMFLRGSKYLKEIPDLSLAINLEEVDICKCESLVTFPSSMQNAIKLIYLDISDCKKLESFPTDLNLESLEYLNLTGCPNLRNFPAIKMGCSDVDFPEGRNEIVVEDCFWNKNLPAGLDYLDCLMRCMPCEFRPEYLVFLNVRCYKHEKLWEGIQSLGSLEEMDLSESENLTEIPDLSKATNLKHLYLNNCKSLVTLPSTIGNLQKLVRLEMKECTGLEVLPTDVNLSSLETLDLSGCSSLRTFPLISKSIKWLYLENTAIEEILDLSKATKLESLILNNCKSLVTLPSTIGNLQNLRRLYMKRCTGLEVLPTDVNLSSLGILDLSGCSSLRTFPLISTNIVWLYLENTAIGEVPCCIEDFTRLRVLLMYCCQRLKNISPNIFRLRSLMFADFTDCRGVIKALSDATVVATMEDSVSCVPLSENIEYTCERFWGELYGDGDWDLGTEYFSFRNCFKLDRDARELILRSCFKPVALPGGEIPKYFTYRAYGDSLTVTLPRSSLSQSFLRFKACLVVDPLSEGKGFYRYLEVNFGFNGKQYQKSFLEDEELEFCKTDHLFFCSFKFESEMTFNDVEFKFCCSNRIKECGVRLMYVSQETEYNQQTTRSKKRMRMTSGTSEEYINLAGDQIVADTGLAALNMELSLGEGEASSSTSLEGEALSVDYMITKEQDEDIPFLDPVSDGTWRSFYSAE
The molecule B6 had a Normalized Fold Change: SA vs Mock of 3.79 fold.

B7: ISU1, SufE/NifU family protein (protein, UniProt O49627 51-167, looked up)
Iron-sulfur cluster assembly protein 1: PNVGTGLVGAPACGDVMKLQIKVDEKTGQIVDARFKTFGCGSAIASSSVATEWVKGKAMEDVLTIKNTEIAKHLSLPPVKLHCSMLAEDAIKAAVKDYKEKRVKTNGAAAAGETTQA
B7 registered a Normalized Fold Change: SA vs Mock of 3.44 fold.

B8: G6PD6, glucose-6-phosphate dehydrogenase 6 (protein, UniProt Q9FJI5 1-515, looked up)
Glucose-6-phosphate 1-dehydrogenase 6, cytoplasmic: MGSGQWHVEKRSTFRNDSFVREYGIVPETGCLSIIVLGASGDLAKKKTFPALFNLYRQGFLNPDEVHIFGYARTKISDEELRDRIRGYLVDEKNAEQAEALSKFLQLIKYVSGPYDAEEGFQRLDKAISEHEISKNSTEGSSRRLFYLALPPSVYPSVCKMIKTCCMNKSDLGGWTRIVVEKPFGKDLESAEQLSSQIGELFDESQIYRIDHYLGKELVQNMLVLRFANRFFLPLWNRDNIENVQIVFREDFGTEGRGGYFDEYGIIRDIIQNHLLQVLCLVAMEKPISLKPEHIRDEKVKVLQSVVPISDDEVVLGQYEGYRDDDTVPNDSNTPTFATTILRIHNERWEGVPFILKAGKALNSRKAEIRIQFKDVPGDIFRCQKQGRNEFVIRLQPSEAMYMKLTVKQPGLDMNTVQSELDLSYGQRYQGVAIPEAYERLILDTIKGDQQHFVRRDELKVAWEIFTPLLHRIDKGEVKSIPYKPGSRGPKEADQLLEKAGYLQTHGYIWIPPTL
For B8, the Normalized Fold Change: SA vs Mock was determined as 4.1 fold.

B9: UGT85A1, UDP-Glycosyltransferase superfamily protein (protein, UniProt Q9SK82 1-489, looked up)
UDP-glycosyltransferase 85A1: MGSQIIHNSQKPHVVCVPYPAQGHINPMMRVAKLLHARGFYVTFVNTVYNHNRFLRSRGSNALDGLPSFRFESIADGLPETDMDATQDITALCESTMKNCLAPFRELLQRINAGDNVPPVSCIVSDGCMSFTLDVAEELGVPEVLFWTTSGCAFLAYLHFYLFIEKGLCPLKDESYLTKEYLEDTVIDFIPTMKNVKLKDIPSFIRTTNPDDVMISFALRETERAKRASAIILNTFDDLEHDVVHAMQSILPPVYSVGPLHLLANREIEEGSEIGMMSSNLWKEEMECLDWLDTKTQNSVIYINFGSITVLSVKQLVEFAWGLAGSGKEFLWVIRPDLVAGEEAMVPPDFLMETKDRSMLASWCPQEKVLSHPAIGGFLTHCGWNSILESLSCGVPMVCWPFFADQQMNCKFCCDEWDVGIEIGGDVKREEVEAVVRELMDGEKGKKMREKAVEWQRLAEKATEHKLGSSVMNFETVVSKFLLGQKSQD
B9: the Normalized Fold Change: SA vs Mock was 4.86 fold.

B10: NSP5, nitrile specifier protein 5 (protein, UniProt Q93XW5 1-326, looked up)
Thiohydroximate-O-sulfate sulfur/sulfate-lyase (nitrile-forming) NSP5: MCPVENKWLKVGQKGAGPGARSSHAMTVVGNKVYCFGGELKPTIHIDNDLYVFDLETQEWSIAPATGEAPFPCFGVSMVTIGSTIYVYGGRDDKRRYNGLHSYDTETNEWKLLAPVEEGLPGRSYHSMAGDDRKVYVFGGVTAKGRVNTLHAYDVVDQKWVEYPAAGEACKGRGAPGLVVVEGRIWVLFGFDGNELGDIHCFDLASEQWKAVETTGDVPAARSVFPAVSYGKYIVIYGGEEEPHELMHMGAGKMSGEVYQLDTETLVWERIVCGNEEEKPSQRGWCAFTKAVKDGEEGLLVHGGNSPTNERLDDLVFWGFSHLNVN
Take B10: the Normalized Fold Change: SA vs Mock was determined as 5240 fold.

B11: ADF6 (protein, UniProt Q9ZSK2 1-146, looked up)
Actin-depolymerizing factor 6: MSFRGLSRPNAISGMGVADESKTTFLELQRKKTHRYVVFKIDESKKEVVVEKTGNPTESYDDFLASLPDNDCRYAVYDFDFVTSENCQKSKIFFFAWSPSTSGIRAKVLYSTSKDQLSRELQGIHYEIQATDPTEVDLEVLRERAN
B11 came in with a Normalized Fold Change: SA vs Mock of 2.26 fold.
